Three substances from publication PMC4436829 can be followed below.

Where two headings read alike, the source gives them in different places.

The target in experiment [1] is Taxol-stabilized microtubules (polymerized cow brain tubulin) (cow) (UniProt Q2HJ86). Description: FRAP.
Experiment [2] has as its target S8,15,44,55D NDC80 "Bonsai"-GFP complex. As to the kind of experiment: FRAP.
Experiment [3] has as its target Taxol-stabilized microtubules (polymerized cow brain tubulin) (cow) (UniProt Q2HJ86). As to the kind of experiment: TIRF-based MT-binding assay.
Experiment [4] has as its target S8,15,44,55D NDC80 "Bonsai"-GFP complex. Description: TIRF-based MT-binding assay.
Experiment [5] addresses S15D NDC80 "Bonsai"-GFP complex. Description: TIRF-based MT-binding assay.
The target is the same in experiment [6]. As to the kind of experiment: TIRF-based MT-binding assay. The source holds these as a separate data set.
For experiment [7], the target named is Taxol-stabilized microtubules (polymerized cow brain tubulin) (cow) (UniProt Q2HJ86). As to the kind of experiment: single-molecule TIRF microscopy.
In experiment [8] the target is noD NDC80 "Bonsai"-GFP complex (wild-type Hec1 tail). Description: FRAP.
Experiment [9] shares this target. As to the kind of experiment: TIRF-based MT-binding assay.

UniProt Q2HJ86, sequence (Q2HJ86 8-447, chain 1 of 2): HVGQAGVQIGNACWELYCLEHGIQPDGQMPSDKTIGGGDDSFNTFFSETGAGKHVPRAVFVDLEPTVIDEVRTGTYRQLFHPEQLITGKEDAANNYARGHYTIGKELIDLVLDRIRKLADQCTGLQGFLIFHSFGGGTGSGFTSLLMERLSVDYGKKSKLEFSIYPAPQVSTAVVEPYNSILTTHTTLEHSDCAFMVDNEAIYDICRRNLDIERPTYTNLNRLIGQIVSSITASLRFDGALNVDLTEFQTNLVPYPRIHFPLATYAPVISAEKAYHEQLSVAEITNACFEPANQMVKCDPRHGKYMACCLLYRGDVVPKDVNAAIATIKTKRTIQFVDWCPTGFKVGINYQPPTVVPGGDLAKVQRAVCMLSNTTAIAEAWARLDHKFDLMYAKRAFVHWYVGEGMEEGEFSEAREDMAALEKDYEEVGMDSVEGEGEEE
UniProt Q2HJ86, sequence (Q6B856 1-439, chain 2 of 2, further chain): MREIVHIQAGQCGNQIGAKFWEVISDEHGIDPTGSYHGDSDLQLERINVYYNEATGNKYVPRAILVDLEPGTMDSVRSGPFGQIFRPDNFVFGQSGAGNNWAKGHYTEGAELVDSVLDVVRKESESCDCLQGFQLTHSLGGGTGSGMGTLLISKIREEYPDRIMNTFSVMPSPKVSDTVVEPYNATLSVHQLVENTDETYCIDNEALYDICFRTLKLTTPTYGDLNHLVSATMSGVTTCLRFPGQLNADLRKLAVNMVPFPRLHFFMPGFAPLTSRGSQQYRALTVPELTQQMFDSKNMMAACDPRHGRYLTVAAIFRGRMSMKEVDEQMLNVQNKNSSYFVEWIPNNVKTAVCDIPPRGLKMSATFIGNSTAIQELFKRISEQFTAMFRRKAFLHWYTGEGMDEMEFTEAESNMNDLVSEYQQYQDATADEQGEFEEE

With S8,15,44,55D NDC80 "Bonsai"-GFP complex, the FRAP recovery time in [1] amounted to 0.084 s. The cooperativity parameter (ω) came to 2.4 in [2] and 2.6 in experiment [4]. Also, the Kd in [3] is 1920 nM. The stoichiometry N (molecules per tubulin dimer) in experiment [3] turned out to be 1.9.

On to S15D NDC80 "Bonsai"-GFP complex, for which the cooperativity parameter (ω) in experiment [5] came to 3. The substance further yielded a cooperativity parameter (ω) in experiment [6] of 2. In experiment [3], this substance returned a dissociation constant (Kd) of 710 nM and a stoichiometry N (molecules per tubulin dimer) of 1.9.

Regarding “noD NDC80 "Bonsai"-GFP complex (wild-type Hec1 tail)”, the Kd turned out to be 640 nM in [7] and 530 nM in experiment [3]. The substance also showed a residency time (τ = 1/koff) in experiment [7] of 417 ms. Further, in experiment [1], the FRAP recovery time came out at 0.29 s. The results for the cooperativity parameter (ω) in experiment [8] and in experiment [9] were 2 and 3.33, respectively. Moreover, the stoichiometry N (molecules per tubulin dimer) in experiment [3] stood at 1.9.
